In article PMC7655802, “Antibiotic-induced DNA damage results in a controlled loss of pH homeostasis and genome instability”:

Tests used:
RecA [1] = target: T1, RecA (UniProt P0A7G6 2-353); assay: EMSA (glutaraldehyde-fixed); pH 5; 1 mM ATP, 10 mM Mg2+; EMSA: 50 mM phosphate/citrate pH 5-8, 50 mM NaCl, 10 mM MgCl2, 1 mM ATP, 25 C, 5 min, then 0.125% glutaraldehyde; stopped-flow: 20 nM dT79, 1 mM ATP, 10 mM MgCl2; conditions: protein: commercial; label: 5'-FITC; single strand
RecA [2] = target: T1, RecA; assay: stopped-flow fluorescence; pH 5; 1 mM ATP, 10 mM Mg2+; binds in less than 1 s; EMSA: 50 mM phosphate/citrate pH 5-8, 50 mM NaCl, 10 mM MgCl2, 1 mM ATP, 25 C, 5 min, then 0.125% glutaraldehyde; stopped-flow: 20 nM dT79, 1 mM ATP, 10 mM MgCl2; conditions: protein: commercial; label: 5'-Cy3; single strand

T1 sequence (P0A7G6 2-353): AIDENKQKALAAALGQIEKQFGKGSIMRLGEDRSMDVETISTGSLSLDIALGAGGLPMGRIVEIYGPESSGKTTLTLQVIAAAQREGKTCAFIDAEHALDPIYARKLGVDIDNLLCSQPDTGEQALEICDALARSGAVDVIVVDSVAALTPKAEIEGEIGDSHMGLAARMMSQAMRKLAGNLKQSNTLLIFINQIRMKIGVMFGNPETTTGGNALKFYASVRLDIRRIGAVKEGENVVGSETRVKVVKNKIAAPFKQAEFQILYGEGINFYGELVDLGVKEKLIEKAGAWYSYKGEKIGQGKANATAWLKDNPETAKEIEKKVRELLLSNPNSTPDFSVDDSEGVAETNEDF

B1: 90mer oligonucleotide (ssDNA)
DNA: AAATCAATCTAAAGTATATATGAGTAAACTTGGTCTGACAGTTACCAATGCTTAATCAGTGAGGCACCTATCTCAGCGATCTGTCTATTT
- binding signal (RecA [1]): ~10 fold higher affinity at pH 5 than at pH 8

B2: dT79 (ssDNA)
DNA: TTTTTTTTTTTTTTTTTTTTTTTTTTTTTTTTTTTTTTTTTTTTTTTTTTTTTTTTTTTTTTTTTTTTTTTTTTTTTTT
- binding result (RecA [2]): binds
